Measurements as given in publication PMC8944281 (Proceedings of the National Academy of Sciences of the …, 2022).

Molecular target: T1, His8-tagged GSAP-16K 734 to 758 (UniProt A4D1B5 734-758)
T1 chain (looked up): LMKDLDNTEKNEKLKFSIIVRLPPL
Assay: SEC

binding result: binds
B1: GST-APP 730 to 738 (domain or fragment, UniProt P05067 730-738, looked up)
chain: SIHHGVVEV
